Reference: patent publication US20080081903A1, “METHOD FOR SCREENING TRANSCRIPTIONAL COREGULATORY PROTEINS OF TRANSCRIPTION FACTORS, AND ANDROGEN RECEPTOR TRANSCRIPTIONAL COREGULATORY PROTEINS AS TARGETS FOR ANDROGEN RECEPTOR-DEPENDENT DISEASES” (NEW YORK UNIVERSITY, priority 2001, published 2008)

Target: T1, androgen receptor (AR) N-terminus (18-500) (Rattus norvegicus, UniProt P15207)
T1 construct: receptor residues 18 through 500 (using the rat androgen receptor number scheme); expressed in transfected cells; host or cells: Saccharomyces cerevisiae EGY188
T1 sequence (P15207 18-500): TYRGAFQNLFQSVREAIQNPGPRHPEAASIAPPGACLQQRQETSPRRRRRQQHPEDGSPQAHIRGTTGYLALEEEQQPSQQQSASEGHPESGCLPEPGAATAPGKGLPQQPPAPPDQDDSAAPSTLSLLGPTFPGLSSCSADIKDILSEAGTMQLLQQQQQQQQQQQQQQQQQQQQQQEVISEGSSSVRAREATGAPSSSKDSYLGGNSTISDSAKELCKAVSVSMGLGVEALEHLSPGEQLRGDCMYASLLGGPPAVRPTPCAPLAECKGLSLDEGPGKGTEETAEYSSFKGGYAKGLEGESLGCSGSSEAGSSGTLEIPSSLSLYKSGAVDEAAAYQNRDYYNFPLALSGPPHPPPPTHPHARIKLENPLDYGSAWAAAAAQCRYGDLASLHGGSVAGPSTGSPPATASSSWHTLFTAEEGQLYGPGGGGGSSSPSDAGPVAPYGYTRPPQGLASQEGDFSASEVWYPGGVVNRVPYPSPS
Test: Modified yeast two-hybrid, qualitative plate beta-galactosidase assay
Assay type: binding
Description: The modified yeast two hybrid assay is described in Hittelman et al., 1999. EGY188 was transformed by the lithium acetate method with (i) pJG4-5:AR18-500, (ii) pEG202:LNCaP cell cDNA library and (iii) pJK103, a β-galactosidase reporter gene with a single LexA operator. Potential interacting proteins were selected by plating the cDNA library expressing transformants onto galactose plates lacking leucine and containing X-gal.
To analyze the specificity of ART interaction, the capacity of the strongest androgen receptor N-terminus-interacting factors to associate with a panel of transcriptional regulatory proteins in the modified yeast two-hybrid assay was examined. ART-5, ART-27, and ART-37 were tested for interaction with Sp1A (Sp183-262), Sp1B (Sp1263-524) the cyclic AMP response element binding protein (CREB3-296), TBP-associated factor 130 (TAFII130270-700), the glucocorticoid receptor AF1 (GR107-237), and the steroid receptor coactivator-1 (SRC-1374-800).
The strength of interaction was determined by a qualitative plate beta-galactosidase assay after a 24 hour incubation on galactose X-gal plates at 301 C.
ART-27 derivatives containing amino acids 1-45, 1-67, 1-127, 46-157, 68-157, 127-157, 1-157, and 1-45/127-157 were expressed as fusion proteins with LexA. These derivatives were tested for their ability to interact with the androgen receptor N-terminus (AR18-500). The strength of interaction was determined by a qualitative plate beta-galactosidase assay after a 24 hour incubation on galactose X-gal plates at 301 C.

interaction with androgen receptor N-terminus (24 hour incubation on galactose X-gal plates): interacts exclusively
specificity of interaction among panel of transcriptional regulatory factors (AR N-terminus, AR LBD, Sp1A, Sp1B, CREB, TAFII130, GR AF1, SRC-1): interacts rather specifically
B1: ART-5: Androgen Receptor Trapped protein, SEQ ID NO:4, unknown function, represented in EST database (protein)
chain: MHNPDGSASPTADPGSELQTLGQAARRPPPPRAGHDAPRRTRPSARKPLSCFSRRPMPTREPPKTRGSRGHLHTHPPGPGPPLQGLAPRGLKTSAPRPPCQPQPGPHKAKTKKIVFEDELLSQALLGAKKPIGAIPKGHKPRPHPVPDYELKYPPVSSERERSRYVAVFQDQYGEFLELQHEVGCAQAKLRQLEALLSSLPPPQSQKEAQVAARVWREFEMKRMDPGFLDKQARCHYLKGKLRHLKTQIQKFDDQGDSEGSVYF
modifications: Human
